Measurements as given in paper PMC5294454, “Enhanced delignification of steam-pretreated poplar by a bacterial laccase” (Scientific Reports, 2017).

Assays:
purified protein [1] = substrate: CCn1c(=NN=c2sc3cc(S(=O)(=O)O)ccc3n2CC)sc2cc(S(=O)(=O)O)ccc21; experiment: purified protein; details: O2, 50 mM sodium acetate, pH 5, 30 °C, 0.1 μM sLac
purified protein [2] = substrate: COc1cccc(OC)c1O; experiment: purified protein; format: biochemical, Amycolatopsis sp. ATCC 39116; details: O2, 50 mM Tris-HCl, pH 8, 30 °C, 0.1 μM sLac

B1: sLac (Amycolatopsis sp. ATCC 39116) (protein)
chain: QGTTRRITMYAEKISDELYGYGLAPGGATVPGPVLEMWEGDTLEIDLVNTTDRVLSLHPHGVDYDVNSDGTLMNGSAVMPGQTRRYTWRSHVGYRRADGSWAEGTAGYWHYHDHAMGTEHGTEGVLKGLYGALVVRRQGDLLPKRQFTVVFNDMMINNRAHHDAPTFEANLGERVEWIAIGHGSNFHTFHLHGHRWLDNRTGMRTSEYDPSPLIDIKDLNPGVSFGFQVIAGEGVGPGMWMYHCHVQNHSDMGMAGMFLVRNADGTMPAGVHEH
notes: residues 6-279, putative N-terminal TAT signal removed, TEV-cleavable N-terminal poly-His tag (cleavage not mentioned), pET15a(+), E. coli Rosetta BL21(DE3)pLysS; forward primer […] encodes MQGTTRRI; reverse primer encodes C-terminal ...VHEH
- Km (purified protein [1]): 500 ± 40 µM
- kcat (purified protein [1]): 7 ± 0.3 s⁻¹
- Km (purified protein [2]): 3000 ± 100 µM
- kcat (purified protein [2]): 0.5 ± 0.07 s⁻¹
